# Measurements: paper PMC8026774
# Tests used:
# MOR-1-PK (mouse) = MOR-1-PK (mouse) (UniProt P42866)
# MOR-1O-PK (mouse) [1] = target: MOR-1O-PK (mouse)
# [2] = target: MOR-1O (untagged) (mouse); assay: radioligand binding
# MOR-1O-PK (mouse) [3] = assay: radioligand binding
Substance,"[35S]GTPγS binding (G-protein activation), EC50 (MOR-1C-PK (mouse)) [nM]","[35S]GTPγS binding (G-protein activation), EC50 (MOR-1A-PK (mouse)) [nM]","[35S]GTPγS binding (G-protein activation), EC50 (MOR-1E-PK (mouse)) [nM]","[35S]GTPγS binding (G-protein activation), EC50 (MOR-1B1-PK (mouse)) [nM]","[35S]GTPγS binding (G-protein activation), EC50 (MOR-TR-PK (mouse)) [nM]","[35S]GTPγS binding (G-protein activation), EC50 (MOR-1-PK (mouse)) [nM]","[35S]GTPγS binding (G-protein activation), EC50 (MOR-1O-PK (mouse) [1]) [nM]",Ki [2] [nM],Ki (MOR-1O-PK (mouse) [3]) [nM]
DAMGO (peptide),195,39,29,110,48,,,,
"[Met^5]enkephalin-Arg^6,Phe^7 (peptide)",69,13,,33,73,16,82,,
endomorphin-1 (peptide),116,86,42,113,107,44,282,,
endomorphin-2 (peptide),111,131,101,367,55,90,335,,
β-endorphin (from UniProt P01189) (peptide),,,,,,,192,13.3,38.2
